Data taken from patent publication US20140011732A1 (Novo Nordisk, published 2014).
Starred links: 1 amine or outer side, 2 acyl side, 3 side chain; linkers in the order of their positions; H or OH if unused. Non-standard residues stand in square brackets, D forms with d. Groups on a side chain read outwards from the residue. Primed or numbered codes have the meaning given here. No end group written: not given here. *: point of attachment. C20 diacid = O=C(O)CCCCCCCCCCCCCCCCCCC(=O)*; C18 diacid = O=C(O)CCCCCCCCCCCCCCCCC(=O)*; d(βAsp) = O=C(O)[C@@H](CC(=O)[*:2])N[*:1]; γGlu = O=C(O)[C@H](CCC(=O)[*:2])N[*:1]; 2Nal = N[C@@H](Cc1ccc2ccccc2c1)C(=O)O; Desaminohistidyl = O=C(CCc1c[nH]cn1)*; Trx = NC[C@H]1CC[C@H](C(=O)O)CC1; Trx′ = not defined here; AEEA = NCCOCCOCC(=O)O; Aib = CC(C)(N)C(=O)O; Inp = O=C(O)C1CCNCC1; Bn = c1ccc(C*)cc1

Target: T1, human serum albumin (HSA) (human, UniProt P02768 25-609, biotinylated)
T1 construct: also called biotinylated HSA
Experiment: competition SPA on biotinylated HSA, 125I acylated GLP-1 tracer;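 also: streptavidin SPA beads carrying biotinylated HSA, competition incubated 20 h at room temperature, plates then read on a TopCount counter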

Binder	EC50 [nM]
H[Aib]EGTFTSDVSSYLEEQAAREFIAWLVRGRK([AEEA-AEEA-γGlu-Trx-C20 diacid])-NH2	800 to 2000
HAEGTFTSDVSSYKEEQAAREFIEWLVKGRP (Aib8; Lys20 N-epsilon carries the acyl side chain printed in the name; C-terminal amide)	1 to 100
HAEGTFTSDVSKYLEEQAAKEFIAWLVQGRG (not fully specified; Aib8; Lys18 N-epsilon carries the acyl side chain printed in the name)	800 to 2000
H[Aib]EGTFTSDVSSYLEEQAAREFIAKLVRGRG (not fully specified (residue 25); printed as N-epsilon31-(2-{2-[2-(2-{2-[2-((S)-3-Carboxy-3-{[1-(19-carboxy-nonadecanoyl)piperidine-4-carbonyl]amino}propionylamino)ethoxy]ethoxy}acetylamino)ethoxy]ethoxy}acetyl)[Aib8,Glu22,Arg26,Lys31,Arg34]GLP-1-(7-37))	150 to 300
H[Aib]EGTFTSDVSSYK([AEEA-AEEA-d(βAsp)-Inp-C18 diacid])EGQAAREFIEWLT(Bn)KGRG-NH2 (not fully specified; printed as N-ε^20({2-[2-(2-{2-[2-((R)-3-carboxy-3-{[1-(17-carboxyheptadecanoyl)piperidine-4-carbonyl]amino}propionylamino)ethoxy]ethoxy}acetylamino)ethoxy]ethoxy}acetyl) [Aib^8,Lys^20,Arg^28,Glu^30,Thr(O-benzyl)^33,]GLP-1-(7-37)amide, Arg26 used; also called [Aib^8,Lys^20,Arg^26,Glu^30,Thr(O-benzyl)^33,]GLP-1-(7-37)amide derivative)	300 to 800
H[Aib]EGTFTSDVSSYLEEQAAREFIAKLVKGRG (not fully specified (residue 25); printed as N-epsilon31{2-[2-(2-{2-[2-((S)-3-carboxy-3-{[1-(19-carboxynonadecanoyl)piperidine-4-carbonyl]amino}propionylamino)ethoxy]ethoxy}acetylamino)ethoxy]ethoxy}acetyl [Aib8, Glu22, Arg26,Lys 31]GLP-1-(7-37))	100 to 150
H[Aib]EGTFTSDVSSYK([AEEA-AEEA-d(βAsp)-Inp-C18 diacid])EGQAARE[2Nal]IEWLVKGRG-NH2	800 to 2000
H[Aib]EGT[2Nal]TSDVSSYK([AEEA-AEEA-d(βAsp)-Inp-C18 diacid])EGQAAREFIEWLVKGRG-NH2	150 to 300
H[Aib]EGTFTSDVSSYLEEQAAREFIKWLVKGRG (not fully specified (residue 24); printed as N-epsilon30{2-[2-(2-{2-[2-((S)-3-carboxy-3-{[1-(19-carboxynonadecanoyl)piperidine-4-carbonyl]amino}propionylamino)ethoxy]ethoxy}acetylamino)ethoxy]ethoxy}acetyl [Aib8,Glu22,Arg26,Lys30]GLP-1-(7-37))	150 to 300
H[Aib]EGTFTSDVSKYLE[Aib]QAAREFIAWLVR[Aib]RG (not fully specified (residue 12); printed as N-epsilon 18-[2-(2-[2-(2-[2-(2-((R)-3-[trans-4-((9-Carboxynonadecanoylamino]methyl)cyclohexylcarbonylamino]3-carboxypropionylamino)ethoxy)ethoxy]acetylamino)ethoxy]ethoxy)acetyl][Aib8, 22,35, Lys18, Arg26,34]GLP-1-(7-37))	800 to 2000
H[Aib]EGTFTSDVSSYLEEQAAKEFIAWLVQGRG (not fully specified (residue 20); printed as N-epsilon26-[2-(2-[2-(2-[2-(2-((R)-3-[trans-4-((9-Carboxynonadecanoylamino]methyl)cyclohexylcarbonylamino]3-carboxypropionylamino)ethoxy)ethoxy]acetylamino)ethoxy]ethoxy)acetyl][Aib8, Glu22, Gln34]GLP-1-(7-37))	100 to 150
{2‑(4-imidazolyl)acetyl}-AEGTFTSDVSSYLEEQAAREFIAWLVRGRK([AEEA-AEEA-γGlu-Trx′-C20 diacid]) (reading uncertain; also: printed as N-alpha8-[2-(4-imidazolyl)acetyl] N-epsilon37-[2-(2-{2-[2-(2-{2-[(S)-4-Carboxy-4-({trans-4-[(19-carboxynonadecanoylamino)methyl]cyclohexanecarbonyl}amino)butyrylamino]ethoxy}ethoxy)acetylamino]ethoxy}ethoxy)acetyl][Glu22,Arg26,Arg34,Lys37]GLP-1-(8-37), GLP-1-(8-37) = residues 2-31 of the entry) [N-alpha8-[2-(4-imidazolyl)acetyl] …]	150 to 300
HAEGTFTSDVSSYLEGQAAKEFIAWLKR (Aib8; N-epsilon26 (so in the source) carries the acyl side chain printed in the name, GLP-1-(7-34) = residues 1-28 of the entry)	1 to 100
H[Aib]EGTFTSDVSSYLEEQAAREFIAWLVRGRK-NH2 (not fully specified (residue 31); printed as N-epsilon37{2-[2-(2-{2-[2-((S)-3-carboxy-3-{[1-(19-carboxynonadecanoyl)piperidine-4-carbonyl]amino}propionylamino)ethoxy]ethoxy}acetylamino)ethoxy]ethoxy}acetyl [Aib8,Glu22,Arg26,Arg34,Lys37]GLP-1-(7-37)amide)	300 to 800
HAEGTFTSDVSSYLEEQAAREFIAWLVRGRGK (ImPr7 (imidazopropionic acid = des-amino-histidine); the added C-terminal Lys carries the acyl side chain printed in the name; C-terminal amide)	1 to 100
HAEGTFTSDVSSYLEEQAAREFIEWLVKGRPK (Aib8; the added C-terminal Lys carries the acyl side chain printed in the name) [[Aib8,Glu22,Arg26,Glu30,Pro37]GLP-1-(7-37)Lys …]	150 to 300
[Desaminohistidyl]AEGTFTSDVSSYLEGQAAREFIAWLVRGRGK-NH2 (not fully specified (residue 32); printed as [desaminoHis^7,Arg^26,Arg^34]GLP-1-(7-37)Lys[2-(2-[2-(2-[2-(2-((R)-3-[trans-4-((9-Carboxynonadecanoylamino]methyl)cyclohexylcarbonylamino]3-carboxypropionylamino)ethoxy)ethoxy]acetylamino)ethoxy]ethoxy)acetyl]amide)	> 2000
H[Aib]EGTFTSDVSSYLEEQAAREFIEWLVKGRPK (not fully specified (residue 32); printed as [Aib8,Glu22,Arg26,Glu30,Pro37]GLP-1-(7-37)Lys (2-(2-(3-(2-(2-(2-(2-(2-(2-(2-(2-(2-(2-(2-(2-[4-(S)-carboxy-4-(4-(S)-carboxy-4-(4-{4-[16-(Tetrazol-5-yl)hexadecanoylsulfamoyl]butanoylamino}butanoylamino) butyrylamino)butyrylamino]ethoxy)ethoxy)ethoxy)ethoxy)ethoxy)ethoxy)ethoxy)ethoxy)ethoxy)ethoxy)ethoxy)ethoxy) propionylamino)ethoxy)ethoxy) peptide) [[Aib8,Glu22,Arg26,Glu30,Pro37]GLP-1-((7-37)Lys …]	300 to 800
[Desaminohistidyl]AEGTFTSDVSSYLEGQAAREFIAWLVRGRGK([AEEA-AEEA-γGlu-Inp-C20 diacid]) [[DesaminoHis7,Arg26,34]-GLP-1 …]	> 2000
[Desaminohistidyl]AEGTFTSDVSSYLEEQAAREFIAWLVRGRGK([AEEA-AEEA-γGlu-Trx-C20 diacid])-NH2 (SMILES CC[C@H](C)[C@H](NC(=O)[C@H](Cc1ccccc1)NC(=O)[C@H](CCC(=O)O)NC(=O)[C@H](CCCNC(=N)N)NC(=O)[C@H](C)NC(=O)[C@H](C)NC(=O)[C@H](CCC(N)=O)NC(=O)[C@H](CCC(=O)O)NC(=O)[C@H](CCC(=O)O)NC(=O)[C@H](CC(C)C)NC(=O)[C@H](Cc1ccc(O)cc1)NC(=O)[C@H](CO)NC(=O)[C@H](CO)NC(=O)[C@@H](NC(=O)[C@H](CC(=O)O)NC(=O)[C@H](CO)NC(=O)[C@@H](NC(=O)[C@H](Cc1ccccc1)NC(=O)[C@@H](NC(=O)CNC(=O)[C@H](CCC(=O)O)NC(=O)[C@H](C)NC(=O)CCc1c[nH]cn1)[C@@H](C)O)[C@@H](C)O)C(C)C)C(=O)N[C@@H](C)C(=O)N[C@@H](Cc1c[nH]c2ccccc12)C(=O)N[C@@H](CC(C)C)C(=O)N[C@H](C(=O)N[C@@H](CCCNC(=N)N)C(=O)NCC(=O)N[C@@H](CCCNC(=N)N)C(=O)NCC(=O)N[C@@H](CCCCNC(=O)COCCOCCNC(=O)COCCOCCNC(=O)CC[C@H](NC(=O)[C@H]1CC[C@H](CNC(=O)CCCCCCCCCCCCCCCCCCC(=O)O)CC1)C(=O)O)C(N)=O)C(C)C)	800 to 2000
HAEGTFTSDVSSYLEEQAAREFIAWLVRGRK (desaminoHis7; Lys37 is bound to the peptide via its epsilon amino group (epsilon-Lys37); its N-alpha carries the acyl side chain printed in the name)	1 to 100
HAEGTFTSDVSSYLEEQAAREFIAWLVRGRK (Aib8; Lys37 N-epsilon carries the acyl side chain printed in the name; C-terminal amide)	800 to 2000
HAEGTFTSDVSSYLEEQAAREFIAWLVRGRK (Aib8; Lys37 N-epsilon carries the acyl side chain printed in the name)	1 to 100
